Results: article PMC4605646 (PLoS ONE, 2015)

Target: human α-synuclein (human, UniProt P37840 1-140)
Test: cell-based or functional assay

B1: CsgE (natural protein)
chain: VEVEVPGLLTDHTVSSIGHDFYRAFSDKWESDYTGNLTINERPSARWGSWITITVNQDVIFQTFLFPLKRDFEKTVVFALIQTEEALNRRQINQALLSTGDLAHDEF
- lag phase of α-synuclein amyloid formation (ThT fluorescence, 70 μM α-synuclein, 37°C, agitation) at CsgE-to-α-synuclein molar ratios of 1-to-3, 1-to-10 and 1-to-100: 4 fold
